From the supplement of paper PMC12764529
± gives the half width of the 95% confidence interval.

What was measured:
[1] = folding stability dG unfold (combined trypsin and chymotrypsin); higher = more stable
In short: (§1)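 How resistant each design was to proteolysis was captured as K50, inferred by Bayesian fitting of sequencing counts. Unfolding free energy was then derived relative to a sequence-predicted unfolded-state K50 and a shared folded-state K50, per protease or combined. Digestion used trypsin and chymotrypsin at 11 threefold-diluted concentrations plus a no-protease condition, on mini-proteins under 80 residues without cysteine in a PA-tagged cDNA display construct. Designs were kept only when AlphaFold2 dimer inter-PAE was above 15.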

[2] = folding stability dG unfold from chymotrypsin proteolysis; higher = more stable
In short: as §1

[3] = folding stability dG unfold from trypsin proteolysis; higher = more stable
In short: as §1

| Sequence | folding stability dG unfold [1] [kcal/mol] | folding stability dG unfold [2] [kcal/mol] | folding stability dG unfold [3] [kcal/mol] |
| --- | --- | --- | --- |
| SAGGSAGGSAKPEKPEKVELKPKVKFVKVKVRLRFSFTLENGEKVEVELEATFLFVDGKLVSAGGSAGGSAG [r3_380_TrROS_Hall] | 5.11 ± 0.2 | 5.31 ± 0.13 | 3.97 ± 0.22 |
| SAGGSAGGSAKPKVKIKIEVTVNEDGTVTVRAEIEVNGKKYTIEVKIKIKAPKPEKVKLFKKSAGGSAGGSA [r18_507_TrROS_Hall] | 0.497 ± 0.48 | -0.2 ± 0.84 | 0.919 ± 0.066 |
| SAGGSAGGSAKSFWIDSPEQAEELADELQQKGPNVEPTVERDDNNGWYQLEIPNGKDIVIWGSAGGSAGGSA [r18_154_TrROS] | 0.272 ± 0.24 | 0.73 ± 0.19 | -0.417 ± 0.2 |
| SAGGSAGGSAKTIKVLVRDKETGEVFEVEAEIVEFDEETGELLIKVRLPNGKTLTLSAEELLSAGGSAGGSA [r18_334_TrROS_Hall] | 3.71 ± 0.21 | 4.12 ± 0.1 | 2.54 ± 0.098 |
| SAGGSAGGSAKTLTLTTPNGDKVEVKLYELPDDFVLAEIKVLATGEKFYALLTKDGTVYLASAGGSAGGSAG [r3_15_TrMRF] | 3.06 ± 0.13 | 3.49 ± 0.15 | 2.47 ± 0.084 |
| SAGGSAGGSAKTVTLTIEITNEDGKKFTAKIEVTYDEETGEFTVRIEIFDKNGKLIAEFPLSAGGSAGGSAG [r3_154_TrROS_Hall] | 4.98 ± 0.2 | 5.1 ± 0.1 | 3.72 ± 0.17 |
| SAGGSAGGSAKVEPVGVDPKNLVVVYRFENFTVAVTYDPESGKVTVRITDPDGNVLEFELSSAGGSAGGSAG [r3_25_TrMRF] | 3.71 ± 0.086 | 4.112 ± 0.041 | 2.24 ± 0.077 |
| SAGGSAGGSAKVILLPSPDDSVVLITVHPDDTVEVTVLRLNPEDPTYEPVTVTVPLSYPELFSAGGSAGGSA [r18_503_TrMRF] | 0.843 ± 0.18 | 0.791 ± 0.19 | 0.903 ± 0.044 |
| SAGGSAGGSAKYKPIGELEFEFENGIRLRVTFYEGEGEKIAIVEIEIPEPSLEEAIKILESSAGGSAGGSAG [r3_158_TrMRF] | 2.56 ± 0.09 | 2.79 ± 0.037 | 2.14 ± 0.095 |
| SAGGSAGGSALDPSAPYVVLIDIDIEPEKAEVEKIPGIPKYIVKKIDLKITIKIEIVSAKDASAGGSAGGSA [r18_137_TrMRF] | 2.84 ± 0.08 | 3.14 ± 0.087 | 2.28 ± 0.17 |
| SAGGSAGGSALELIKEIAEEHNIPVDIEPTGNKIRVEIEMPNPDGQPVKHTIEIPIPPDENQSAGGSAGGSA [r18_27_TrROS] | 0.975 ± 0.2 | 1.08 ± 0.078 | 0.389 ± 0.11 |
| SAGGSAGGSALLEALKALPPNATLTLVTVETRTETVTDADGSTHTRTTTRVTVTTITIRPEDLSAGGSAGGS [r12_805_TrROS_Hall] | 3.18 ± 0.12 | 3.67 ± 0.089 | 2.27 ± 0.12 |
| SAGGSAGGSALPDLEFPFELVEEVEVPVYDPLSDEVLGTVRVWKVRVPGGPELTLVEFDPESAGGSAGGSAG [r3_166_TrMRF] | 1.35 ± 0.061 | 1.3 ± 0.047 | 1.27 ± 0.017 |
| SAGGSAGGSALVVRLENGKEILIEGMSEEEIKELLDKLLPPEEKKNLKIVKVEVFEVEKPESAGGSAGGSAG [r3_340_TrROS_Hall] | 1.29 ± 0.18 | 1.14 ± 0.096 | 1.62 ± 0.1 |
